Consider one sequence from patent publication US6140490.

In the data set the target is Complement C1q (Homo sapiens) (UniProt P02745+P02746+P02747). As to the kind of experiment: filter. Conditions: 2'-NH2 C and U; MgPBS, 37 C; starting pool.
Chain of Complement C1q (Homo sapiens) (P02745 23-245, chain 1 of 3): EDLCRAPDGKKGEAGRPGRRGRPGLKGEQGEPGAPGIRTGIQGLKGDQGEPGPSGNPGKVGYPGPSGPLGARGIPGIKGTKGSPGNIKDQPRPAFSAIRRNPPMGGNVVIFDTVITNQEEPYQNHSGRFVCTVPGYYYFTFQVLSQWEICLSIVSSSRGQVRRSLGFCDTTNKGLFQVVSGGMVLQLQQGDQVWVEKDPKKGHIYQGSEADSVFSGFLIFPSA
Chain of Complement C1q (Homo sapiens) (P02746 28-253, chain 2 of 3): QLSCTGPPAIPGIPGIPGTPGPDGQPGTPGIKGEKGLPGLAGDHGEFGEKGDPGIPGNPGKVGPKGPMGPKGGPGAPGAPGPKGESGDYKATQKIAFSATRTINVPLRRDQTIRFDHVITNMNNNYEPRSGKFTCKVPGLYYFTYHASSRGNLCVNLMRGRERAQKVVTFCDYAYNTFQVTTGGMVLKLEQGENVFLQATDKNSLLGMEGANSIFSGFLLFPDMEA
Chain of Complement C1q (Homo sapiens) (P02747 29-245, chain 3 of 3): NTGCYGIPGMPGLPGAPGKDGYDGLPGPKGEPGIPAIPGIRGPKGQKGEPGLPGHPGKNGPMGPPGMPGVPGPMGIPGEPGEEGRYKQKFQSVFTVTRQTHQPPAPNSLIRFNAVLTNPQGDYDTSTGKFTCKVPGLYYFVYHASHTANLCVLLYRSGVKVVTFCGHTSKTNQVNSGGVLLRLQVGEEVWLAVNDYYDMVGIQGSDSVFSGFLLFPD

As to “GGGAGGACGAUGCGGNNNNNNNNNNNNNNNNNNNNNNNNNNNNNNNNNNNNNNNNNNNNNNNNNNCAGACGACUCGCCCGA [random 50N7 2'-NH2 RNA pool]”, the Kd (as a rule, the constant that tells how readily two partners part at equilibrium) stood at 2.3 µM.
